In the assay the target is His6-tagged CHIP (C-terminus of Hsc70-interacting protein) (UniProt Q9UNE7). Nature of the assay: BLI.
UniProt Q9UNE7, sequence (Q9UNE7 whole entry): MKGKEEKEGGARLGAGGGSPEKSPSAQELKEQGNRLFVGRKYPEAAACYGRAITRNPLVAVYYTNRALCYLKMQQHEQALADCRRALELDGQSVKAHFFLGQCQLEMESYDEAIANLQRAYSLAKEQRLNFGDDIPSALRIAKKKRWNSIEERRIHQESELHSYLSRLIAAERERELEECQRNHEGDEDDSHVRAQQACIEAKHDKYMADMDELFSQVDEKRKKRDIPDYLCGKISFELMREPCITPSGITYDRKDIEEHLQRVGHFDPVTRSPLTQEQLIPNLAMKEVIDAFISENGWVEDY

Substance “E2 (UbcH5b), wild type (from UniProt P62837 1-147) (enzyme; other documents disagree on this pair)” returned a dissociation constant (Kd) of 6.28 µM.

Source of the values: paper PMC10529061.
